From paper PMC5043019, “Unique and Universal Features of Epsilonproteobacterial Origins of Chromosome Replication and DnaA-DnaA Box Interactions” (Frontiers in Microbiology, 2016)

B1: Wolinella succinogenes DnaA protein (natural protein, W. succinogenes DSM 1740, UniProt Q7MSY2 1-437, looked up)
chain: MLGDTTLKQLKDEISTLEYERYIKQLRYDEEASRTDLAVYIAPNQFIANWVKTKYGERLAHLFELSTGIRPKIEIRLGSLKKDVKSSSPKAGVSKGQKSTILNPSFTFDSFVVGNSNRFAYEVSQNVAKKQGIAYNPLLIYGGTGLGKTHLLNSIGNYNVAKGKSVIYVTSEQFLNDYLYHIRNNTMDRFRDKYRACDYLLIDDVQFFGGKPQIQEEFFHTFNELHNKNKQIVLTSDKTPKQIAGLEERLKSRFEWGMVSDIQPPELETKINIIKKKCEFDGIYLSNEIISYIATNMDNNIREIEGIIIKLNAYANLMNQEITLQFAKNVLKEQIKEERENITLENIIEVVSKELNVKPAEIKSKGRSKNIANARRIVIFLARTLTPNSMPSLAQFFGMKDHSSVSKAMKTVKTEIEEDANFKMVIEELKNKIKSRN
notes: chromosomal replication initiator protein DnaA of Wolinella succinogenes DSM 1740, cloned from genomic DNA; Supplemented with 3 mM ATP for electron microscopy; also called W. succinogenes DnaA; source: purified as described in (Zawilak-Pawlik et al., 2006) with minor modifications (Supplementary Materials)
B2: Arcobacter butzleri DnaA protein (natural protein, A. butzleri RM4018, UniProt A8EQT0 1-438, looked up)
chain: MTTKEFLTIIQKEANQIDYERYLKQLVYKKVSSDNKIAIFEVNNKYIASWIKSKFTNLIQHCFEIYDGSKPTIEIKLSNEKKSKKEILKEQTQNESTESTILNPSYTFDSFVVGPSNQMAYNASLAVANKPGIQYNPLFIYGGTGLGKTHLLQAVGNHAIEKGNTVIYVTIEQFMNDFTFSIKNKNMEHFRNKYRKCDVLLIDDIQFLSGKEQTQEEFFHTFNELHNAKKQIVMTSDRLPSQIAGLVDRLKSRFEWGLTADVQIPGLETKIAIIEKKSELNGICLSREIINFIATNLDNSIREIEGVLIRINASASLLNQEITLPMVQGLLKEQIKETKENVKLPDIINIVANQLNIKPSDIKSKKRTATVANARRIVIYLVRELTHNSMPDIAKFLGMKDHSAISHNIKKANELIEKDENFKLIIENLKNKIINSRE
notes: chromosomal replication initiator protein DnaA of Arcobacter butzleri RM4018, cloned from genomic DNA; Supplemented with 3 mM ATP for electron microscopy; also called A. butzleri DnaA; source: purified as described in (Zawilak-Pawlik et al., 2006) with minor modifications (Supplementary Materials)

Molecular target: the molecule itself
Assay: electron microscopy; purified DnaA (3 mM ATP) incubated with supercoiled plasmids carrying oriC1-dnaA-oriC2 (pAbori1ori2, pSdori1ori2, pWsoriori2); complexes stabilised by glutaraldehyde cross-linking, linearised with ScaI; looped DNA with one protein complex joining oriC1 and oriC2; DnaA molecules are DNA-bound

| Protein | binding result |
| --- | --- |
| B1 | binds |
| B2 | binds |
